Source: the supplement of paper PMC10567573

B1: TRIM35 (parent)
chain: DKELLCCSCQADPRHQGHRVQPVK
B2: RSPH3 (parent)
chain: MTVKPAKAASLARNLAKRRRTYLG

Variants of: B1
Test: protein stability index of a GFP-peptide fusion (GPS, HEK-293T) (PSI 1-6); higher = more stable
Conditions: c terminus: a fixed tail appended
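Note: lentivirally expressed fusions sorted by FACS into six bins by GFP to DsRed ratio, PSI derived from sequencing read proportions per bin multiplied by bin number.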

Protein stability index, by site and new letter:
C7: M 3.62; N 4.1; P 4.03; Q 4.5; R 3.76; S 4.06; T 4.18; V 3.87; W 3.9; Y 3.83
S8: A 3.31; C 4.16; D 4.28; E 4.61; F 2.24; G 4.14; H 2.92; I 2.64; K 3.78; L 2.98; M 2.87; N 3.62; P 3.59; Q 3.05; V 3.75; W 2.5; Y 2.97
C9: A 3.85; D 5.29; E 4.87; F 3.38; G 4.1; H 4.1; I 4.14; K 4.64; L 3.09; M 4.03; N 4.6; P 4.89; Q 4.65; R 4.42; S 4.47; T 4.28; V 3.27; Y 4.52
Q10: A 3.41; C 3.38; D 4.1; E 4.44; F 3.01; G 2.6; H 3.79; I 3.87; K 3.8; L 2.85; M 3.27; N 4.07; P 3.91; R 3.68; S 2.89; T 4.04; V 3.29; W 2.53; Y 3.49
A11: C 3.23; D 4.08; E 3.26; F 4.14; G 3.95; H 3.29; I 3.52; K 4.3; L 3.46; M 2.76; N 4.24; P 3.87; Q 3.41; R 3.85; S 3.67; T 4.25; V 3.13; W 2.84; Y 2.93
D12: A 3.52; C 4.09; E 3.78; F 2.73; G 3.13; H 2.89; I 2.45; K 3.81; L 2.53; M 2.72; N 3.12; P 2.78; Q 3.4; R 3.21; S 3.06; T 3.01; V 3.21; W 3.48; Y 2.75
P13: A 3.04; C 4.78; D 3.44; E 3.44; F 2.31; G 3; H 3.64; I 3.69; K 3.15; L 3.76; M 2.71; N 3.79; Q 3.88; R 3.41; S 1.97; T 3.34; V 2.8; W 2.31; Y 2.79
R14: A 4.06; C 4.24; D 4.05; E 3.85; F 3.35; G 3.03; H 3.69; I 4.18; K 3.37; L 3.43; M 3.97; N 4.13; P 4.18; Q 3.75; S 3.58; T 3.52; V 2.95; W 2.46; Y 3.35
H15: A 3.48; C 4.26; D 4.23; E 3.56; F 3.62; G 3.15; I 2.99; K 3.44; L 3.52; M 2.96; N 3.33; P 3.54; Q 3.02; S 3.78; T 3.57; V 2.95; W 3.33; Y 3
Q16: A 3.52; C 4.54; D 3.98; E 3.87; F 2.32; G 3.82; H 3.58; I 3.82; K 3.96; L 3.43; M 2.66; N 3.33; P 3.66; R 3.34; S 3.72; T 3.23; V 2.88; W 2.67; Y 2.57
G17: A 3.19; C 4.33; D 3.88; E 4.17; F 3.49; H 3.95; I 3.48; K 3.99; L 3.35; M 2.88; N 3.82; P 3.12; Q 3.59; R 3.84; S 3.66; T 3.78; V 3.08; W 2.67; Y 3.37
H18: A 3.89; C 2.75; D 3.91; G 4.1; I 3.9; K 4.16; L 3.65; M 3.97; N 3.98; P 2.6; Q 3.29; R 3.6; S 4.38; T 3.88; V 2.73; W 4.14
R19: A 3.62; C 3.63; D 4.79; E 4.33; F 2.66; G 3.63; H 3.17; I 3.19; K 3.56; L 3.52; M 3.71; N 3.73; P 3.73; Q 3.67; S 3.73; T 3.01; V 3.84; W 2.78; Y 3.16
V20: A 3.13; C 4.46; D 4.14; E 4.04; F 3.48; G 4.15; H 4.69; I 3.44; K 3.5; L 3.91; N 4.13; P 4.54; Q 4.11; R 3.5; S 3.71; T 3.5; W 2.76; Y 3.04
Q21: A 3.79; C 3.92; D 4.05; E 4.26; F 2.79; G 3.28; H 3.61; I 2.65; K 3.74; L 3.15; M 3.68; N 4; P 3.56; R 3.71; S 3.96; T 1.96; W 2.52; Y 2.91
P22: A 3.97; C 4.52; D 4.11; E 4.53; F 3.44; H 3.31; I 3.04; K 4.08; L 2.84; M 2.73; N 3.05; Q 4.04; R 3.4; S 3.08; T 4.03; V 2.68; Y 2.92
V23: A 3.88; C 4; D 4.19; E 3.92; F 3.07; G 3.87; H 3.23; I 4.25; K 4.55; L 4.02; M 3.05; N 3.8; P 4.06; Q 4.13; S 3.36; T 3.4; W 2.19; Y 2.96
K24: A 2.87; C 3.18; D 4.05; E 3.81; F 3.79; G 3.63; H 3.38; I 2.73; L 2.65; M 3.29; N 3.04; P 3.46; Q 3.77; R 2.82; S 3.52; T 3.31; V 2.92; W 2.53; Y 2.79

Variants of: B2
Test: as above
Conditions: c terminus: a fixed tail appended

Protein stability index, by site and new letter:
M1: A 3.34; C 2.71; D 2.85; E 2.46; F 2.35; G 3.28; H 3.45; I 2.15; K 2.33; L 3.36; N 3.88; P 3; Q 3.95
